# The DeepSol protein solubility set
# Test: soluble on expression in E. coli; label from the status in PepcDB or PDB records
row,Sequence,soluble on expression in E. coli
1,MAGRVPRLTGHCSILSRTYGHSLMDLAALRFYIAPGKKPVIAAGMPWYMALFGRDSLITSYQCCFIAPDIAFNTLRNLANLQGKEYNYFKDEEPGKILHELRFGEKTLLGKKPYSPYFGSADTCQLFLILLHEVFKWTGNKEFVNEFKEPALKALYWIDNFGDMDGDGYVEYKKRSKEGLDNHCWKDSGTSMIFSDSRLAEAPIATVEFQGYIYDAKIRLAELAEEVWDDPSFAEELRNQAKELKRRFNRDFWIEDRGGYFALGLDKNKEKIDSMTSNMGHLLWSGIVEDDRAGIIVKQLMSRDLYNGWGIRTLSSHDRGYNPIEYHNGTVWPHDNSLIAEGFIKYGYRDEANRIITNLLEASQYFDSRFPEVFAGYQRTEVDFPVSYPTSSIPQAWAAGASMLFLRLILGLEPDRKSQSIKIDPYLPQVIEDICVENIRLFNKKFSVFAGKGRSEIKLSEMAGDPLEHHHHHH,not soluble
2,MAITAKNAQLYGLDLELGLETGLAADVDNDSMSGLVLVELLSPYHQLETRFKLESQTALAFQAMADSAAKDGIKLAICSAYRPFDRQLAIWNAKASGKRVVLDINEQPVDITPLSESELVDLILLWSALPGASRHHWGTDIDVFDAEKIEVKSLRLVEAEYRDGGPCAQLHQWLVANAKDFGFYFPFQRGQSAVSAEPWHISYFPVSQILLPQFEVQALTQIIAHSDMLLKDAVLARLPELVAEYVHRIAQP,soluble
3,SLNKNARLQQENHFLSLQRSRYDNLCAAIEETRQVRHDIRHHYLQLAALAEKGDMEKIKEYLSSADRKMPSFDFHFCDNQAVDSILGYYSNHAKQEGIPFLAQIDIPDNFLGDEMDICLVLSNLLENAIEASLKTEDSRRKIVIKMYLHHTHILLIQAENNFDAKILEKNGVFQSTKHSGNGIGIQSIRHITERNGGASNFTYKDGEFTAKIMLRI,not soluble
4,MILVTGGARSGKSRHAEALIGDAPQVLYIATSQILDDEMAARIQHHKDGRPAHWRTAECWRHLDTLITADLAPDDAILLECITTMVTNLLFALGGENDPEQWDYAAMERAIDDEIQILIAACQRCPAKVVLVTNEVGMGIVPENRLARHFRDIAGRVNQRLAAAADEVWLVVSGIGVKIK,soluble
5,MNKNIDTVREIITVASILIKFSREDIVENRANFIAFLNEIGVTHEGRKLNQNSFRKIVSELTQEDKKTLIDEFNEGFEGVYRYLEMYTNK,soluble
6,MEEPFEAYRSREVAMKLVEKIREEAKTLDGEIRIMHVCGTHEDTVTRHGIRSLLPENVKVVSGPGCPVCITPVEDIVAMQLIMRKAREEGEEIILTTFGDMYKIPTPMGSFADLKSEGFDVRIVYGIFDTYRIAKENPDKTVVHFSPGFETTTAPAAGMLNVAAQEELENFKIYSVHRLTPPAVEVLLKQGTVFQGLIAPGHVSTIIGVKGWEYLTEKYGIPQVVAGFEPNDVLMAILMLIRMYKEGEARIINEYERAVKYEGNVVAQKMIDKFFEVVDAKWRALGVFPKSGLELRKEWKDFEIRSFYKVEVPKNLPDLEKGCRCGAVLRGLALPTDCPLFGKTCTPRHPVGPCMVSYEGTCQIFYKYGVLF,soluble
7,MESGSWRPPFSTGKIVGNYGLLKLYLEVAREKGRRDLVDKALISEDDVDMLRRLSASPGATAEDFVNALEERFVERVDPEVASEALARAGINVDGDTARRMIARILAGWLVEMGEEMKLYRLRRSWED,soluble
8,MEGTPNVPQAHRYELTLAGRPLVLETGKYAKQASGSVLVRYADTVVLATAQASETPVEADFLPLTVEFEERHYAVGKIPGSFMRREGRPGEKAILSARMTDRPIRPLFPKGFRHEVQIIVTVLSADQKNPPDILGPIAASAALMLSDIPWEGPIAAVRVGLIGGSFVLNPTLQELEESQLDLVVAGSKEAILMVEAEAGEVDEETLVQALEFAHKEMQPILELQEAMARELAKPKMAWTPPESLPEEEKEALYRLALERGLSQVLQTASKGERSRALAEFAERLIAEALPKGEDGTPDEGKKPLYESAFDEVVRRELRRLVLEEGKRADGRGPKDLRPIWIEVDVLPRAHGSAVFTRGETQVLGTVTLGTGRDEQILDDLGIDETEKFLVHYNFPPFSTGEVRRLRGVSRREVGHGNLAKRALKAVMPKEEDFPYTIRVVGDVLESNGSSSMATVCAGCLALMDAGVPIRAPVAGVAMGLVWEENRAVILTDILGLEDALGDMDFKVAGTRKGVTALQMDNKVGGLPREVLKEALLQAREARLKILDLMEAVLPAPRPELKPFAPRILSLKVPVEKIGLVIGPGGKNVRALEELGVEVDIEEDGTVRIYSSDLQAALEAKKRIEDLTREAKVGEIYEGTVTRITPFGAFISLFPGTEGLLHISQIAPGRVARVEDHLKVGDVIKVKVHRIDERGKIDLIRPELEGKIPPRRRR,soluble
9,MSPLNLHTDTTPSLLTFSDVKSFEKIYTMYWARVYATCYNTIKEREVAKEMVQDIFKSLWERKDELEIKTSVEHYLVRAAKFKVFEYIRNKTNQKKHTACALEDYCSATNCTEDAILYSNLTEKVGVLVDRLPCQCRNVYTLSRTEGLTNKEIATRLLISERAVEQHITKALRFLRENLQEYRS,not soluble
10,MGSDKIHHHHHHMTDVAKFGISRLDELLGGGLDRYTENLIIGRSGIGKTILAAHWAAEGARNDETVVYLSTTMNKKNCKAYLGRFPFMEDVYDKIKWRFIRVDPKFVLPLTREKIVEGLRATFGMDGKDIDRVVFDSCTDLELALADPVLYRRALTYMSDLSYDYEITSLWIEEAPMQGDWSSTKNIVDSVIFLNLLRTQEGYQRAMRILKKYRTRVPLEWIPYEITDEGVVIKDGYIVKRSYDYEYKRG,not soluble
11,MSLRVYVTGNITVDETWSIPDIPKKGASIHGVKVSQDIGGKGANQAIILSRCGIETRLIAATGNDSNGAWIRQQIKNEPLMLLPDGHFNQHSDTSIILNSADGDNAIITTTAAADTFSLDEMIPHMADAVAGDILLQQGNFSLDKTRALFQYARSRGMTTVFNPSPVNPDFCHLWPLIDIAVVNESEAELLQPYGVKTLVITQGAAGAWLVQEGQRQFCPAVPAEALDTTGAGDTFLAVMLASALLRGVAPDALALAHASRAAAITVSRRGTLSAFPGSRELAALLTTDGAEGHHHHHH,soluble
12,MSLARSLNNQRSRLVALVVNAIGNPCEAEEQQLLVHRLQARQLLPIILCCADHSDRLQLMRLASTYQVDHVVVFSDMVSMQDAVDIFHTTKPIIVSFEPLENESVSSIRIDGAEAADEIIDKIVRDGKKRFAYLSGTNSSWIDKLRRKWFADALAKRGLAFEAQAFGDYSYDSGFKEAVLLLHRDKVDAIICGNDVMAIGARDAARRVLGKNTPDDIAIVGQDGIAMAAWDCNDLTTLSLDHVAFIDAVVELIERHDAEVEGPHSITLTCTARWGSEGHHHHHH,not soluble
13,GSHMEDSTTNITKKQKWTVEESEWVKAGVQKYGEGNWAAISKNYPFVNRTAVMIKDRWRTMKRLGMN,soluble
14,MGSDKIHHHHHHFNQYRENVELTAQRLEATYRASNILNLGVACLKKHFGFLGMEINWSTGSVTWFDDFRKRVLLQSDGDAWENVFSLLDTEKYYNLSSDIDFSTEASKLGFSNFEAVAIPFKNNPFFALLVVRAQVGKAVVYKYAVLSSDFLNKYAYFTEKETRPDGDKIYFITQDIIDGPFRSNDVIHVKGEPLFKGSVEFKDIDLEAGEGPRYENPPPKYLTEEDIKKYNIEKIKDYYSQQIERIVKPASEVVLSSEPVGIELPSINEFVESWEEKENDKTIYYKKQREIVYTLEFNTPKGSSGNDYLIKVSYKEVYRIYKSEDQEKWNFVREEVLGEGELFHIKSKPNSDQYHLVLQGNEAREFLGLDRNEYDIYFNGVIKTDNDVYLKNMSEGNIKPMFVDGRYTIVANNIYIEDHIIYNDYREVLEEIADKEKISGNSDQKIAQAVIRKLGVDGNIEEDYSELLKNHESDDFLNLVAYKNVVITDKKPNMKIFASIYAFTGSFYVKGYNEKDFLKNNERELTERELTIFGSLAQYVRGAVGTFYWSRDGKPTIKTGYRKNYIYDWRILKGFSVFGTPTVPKESNILNVREVY,not soluble
15,MIRRAKPLLGTLIEIAVESVVEASSQSALDEPAIQAAITAAFSRITQIGRLLSFHQQDSELNLLNRQPGQWITLSQDSLRVFKLAKWFGKASDNLFNCTIGGEMMSRGALPCYLGMPLLLQGDWQDIEIRGNQARLARPLIVTFDGIAKGYAVDMAVRELRRAGVSGGWVNAGGDLKVFGSASLDVLCRGSNGLSQKVTVRNMALASSRVSLQLSLGCPALLLPTGNVDMMSFDASNERVVSVQAPFAWRADALTKVAGYLSAEAAKDKIQQLGGQLVC,not soluble
16,MAHHHHHHMMLRRLFVFDAARATNMRFLTMTSEVRDNLTKQLSALKEECRGQGLDLADMSDASRVAMRTVQEGLTRVSVEDEIFKGKSITLSASMKAYTARLSNLQDEARSIQTEVDALLKMMWGTEAPTKAASFASPPRSTEEVGVSSSSAAAAAGGKGNETVDDEFIVEPPPLAKALGNDKRPAERVEAERVQGTAHKPVEEMRVEEIEVETIEVEVEPNESPADNMKITDITRELYERGVNFSDCLDARTLRQRYKDVLAGKISPGISPGTATSSPATAEANTNQPRMPQHRPYQQQQQQQQQQLNTNESGLAHDPYPNAYRKMVDPMKHVWELKNELAAEKGIDPKSVDLWSGKCKLEDHKLLYDYPSVQNYPIEVRQKGDIPR,not soluble
17,MTEEFYIGTYTKRISRGIYRVSVDTTTPKLMDCEWLASAGSPTYIAKSNAKRLYVINKKETDGQTHGGLIIYDMSEDKPRAIQQLLDLGSSPAYVAVDEDRQLVYTANYHTAAVDVYAINPDGTLKRTDQVIDQDPVGPAPEQADGPHPHFADLTPDNRLVVCDLGSDRVYVYDVSATGKLSAVSHLDLPAGYGPRHIVFDAKKGVAYLVGELSSNVATLSYDTATGTFTVKTIVSTIPDDWTAHNGAAAIRLSADGKFVYVSNRGNNSLAVFASDEAGQLTLVQRISTEGDFPRDFNWTANQRLVLVVNQNSDNASLFERDAQSGKLTLVQKDFMVPEGVSVLPAKLEHHHHHH,soluble
18,GPGSMIQIIAPRGPLQEMLLLELQGKVVIPPKLLEEERERQRIPNSSEEEVKACSQVTGGKRLREDGECGVNVDTNQVVEVPLGCVVWDSRNETRCSLQIGTVEVSGSYGKRREPLLVLKRCVVGDKTADAEGAVACEYSESSGSQCCLLQEWLQEHPEELTLDATVRGATVPRKVYELVGVVERYIHLNSKPLRRFV,not soluble
19,MRYPESLLKLTRALSRLPGIGPKTAQRLALHLAFHKEEAEALAEALEGIKRVRACRECGNLAEGELCPICQDEDRDRSLLAVVESVADLYALERSGEFRGLYHVLGGALNPLEGIGPKELNLEGLFRRLEGVEEVVLATSMTVEGEATALYLAEELKKRGVRVTRPAYGLPVGGSLEYADEVTLGRALEGRRPV,soluble
20,MSLSYLPLDEYQRKWIFTHQSMPVPEEDLAQIKPMSQARSAQFWKENISAQSPDMDRLSSQDWPMKESNWSETVDWMAAWESDEPNMPTEVETHIDWQDDVTVYFCYEKYNVIETKWSIFKKHWKNFLFYDDGPMLLGRRRAQALWFDSKGNVKLGERHEGHHHHHH,soluble
21,MPITIGRGFLKSEMFSQSAISQRSFFTLLWEKIKDFFCDTQRSTADQYIKELCDVASPPDAQRLFDLFCKLYELSSPSCRGNFHFQHYKDAECQYTNLCIKDGEDIPLCIMIRQDHYYYEIMNRTVLCVDTQSAHLKRYSDINIKASTYVCEPLCCLFPERLQLSLSGGITFSVDLKNIEETLIAMAEKGNLCDWKEQERKAAISSRINLGIAQAGVTAIDDAIKNKIAAKVIENTNLKNAAFEPNYAQSSVTQIVYSCLFKNEILMNMLEESSSHGLLCLNELTEYVALQVHNSLFSEDLSSLVETTKNEAHHQSLEHHHHHH,not soluble
22,NGVWVIGEQREGKINPVTIELIGEGRKLADQLGKELAVVIAGYEVEKEVKELLHYSVDKVYYINDPLLKDFTTDGYAISIANLIERKKPEVVLVGATSIGRDIAPRIAGKVGTGLTADCTKLEIDSTDNKLLQTRPAFGGNLMATIVCPKNRPQMSTVRPGVMAKAVRNESETGILEVVTPELTEKMIRTRLVEILPQEKKSVN,soluble
